Measured values published in PMC6761149.

Legend:
[1] = target: light-dependent protochlorophyllide oxidoreductase of Thermosynechococcus elongatus BP-1 (TeLPOR) (Thermosynechococcus elongatus BP-1) (UniProt Q8DLC1); assay: AUC; sedimentation velocity with multiwavelength absorbance optics (MWA-AUC), 20 °C, 50 krpm, c(s) model in SEDFIT; apoprotein (no NADPH, no Pchlide), 0.615 mg ml^-1 (1.23 mg ml^-1 diluted to half with reaction buffer)
[2] = target: light-dependent protochlorophyllide oxidoreductase of Thermosynechococcus elongatus BP-1 (TeLPOR) (Thermosynechococcus elongatus BP-1) (UniProt Q8DLC1); assay: SAXS; ESRF BM29, 10 °C, 20 mM Tris/HCl pH 7.5, 500 mM NaCl, 20% (v/v) glycerol; apoprotein (no NADPH, no Pchlide), concentration series, apo 2 dataset merged from low and high concentration; dimer content assuming only monomers and dimers

percent dimers (apoprotein, without NADPH and Pchlide) [1]: 3.6%
dimer content (%) from I(0) (apoprotein, without NADPH and Pchlide) [2]: 0%
dimer content (%) from Vp (apoprotein, without NADPH and Pchlide) [2]: 1.7%
Substance: light-dependent protochlorophyllide oxidoreductase of Thermosynechococcus elongatus BP-1 (TeLPOR) (from UniProt Q8DLC1 1-322) (enzyme)
